In patent publication US20040038869A1 (published 2004):

Target: Human factor D (human, UniProt P00746 26-253)
Assay: cell-based or functional assay

Human factor D, sequence (P00746 26-253 limits assumed): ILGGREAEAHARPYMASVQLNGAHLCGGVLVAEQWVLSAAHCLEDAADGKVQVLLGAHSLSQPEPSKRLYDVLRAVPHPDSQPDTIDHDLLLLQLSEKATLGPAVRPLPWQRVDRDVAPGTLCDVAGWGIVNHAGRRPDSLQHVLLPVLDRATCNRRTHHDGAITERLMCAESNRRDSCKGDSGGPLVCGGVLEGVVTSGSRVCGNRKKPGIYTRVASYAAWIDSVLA

B1: Recombinant polypeptide from Example 6 (Placobdella papillifera alternative complement pathway inhibitor, mature polypeptide of SEQ ID NO: 16) (other)
chain: VEFQDCKKSSDCETLELRCNKNTSKCECRNQVCPRACPDGKYKLDEYGCKRCLCQGCNEAQCRKLCWYGFTTDENGCESYCKCNTKETACKNVLCSDSYQCDPESGNCVAVIPGKEHDYYSYNDDDDEDK
modifications: No modification is reported for the recombinant product. paragraph 50 mentions only in general a possible N-glycosylation at Asn22 and sulphation or phosphation of Tyr119, Tyr120 and Tyr122. Disulphide bonds between cysteines are likely but not mapped.
  IC50 of inhibition of CVF-induced C3a generation in human serum (C3a ELISA): 138 ng/mL
